Values quoted from earlier work, collected in paper PMC3417102.

Experiments:
[1] = molecular target: plasminogen (Homo sapiens) (UniProt P00747)
[2] = molecular target: tissue-type plasminogen activator (Homo sapiens) (UniProt P00750)
[3] = molecular target: Glu-plasminogen (Homo sapiens) (UniProt P00747)

Sequence of UniProt P00750 (P00750 311-562): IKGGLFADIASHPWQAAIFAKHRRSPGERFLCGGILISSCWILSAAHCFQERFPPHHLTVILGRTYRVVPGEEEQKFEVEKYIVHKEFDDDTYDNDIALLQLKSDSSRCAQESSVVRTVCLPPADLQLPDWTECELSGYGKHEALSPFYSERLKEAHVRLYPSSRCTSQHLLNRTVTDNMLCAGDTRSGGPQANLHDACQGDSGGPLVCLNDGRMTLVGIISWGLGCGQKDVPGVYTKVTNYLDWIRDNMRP

Kd [1] [nM] | Kd [2] [nM] | Kd [3] [nM] | Substance
114 | 30 | – | Annexin A2 (from UniProt P07355)
– | – | 370 | beta2-glycoprotein I (nicked) (from UniProt P02749)
